molecular target: human IL-6 (human, UniProt P05231 30-212); assay: SPR (Biacore), supernatant antibody on Protein A chip, IL-6 flowed, 37 C
Description: Antibodies were captured on a Protein A chip (GE) by injecting 1:20 cell supernatant dilutions at 10 μL/min for 60 seconds. […] The sensor chip was regenerated by a 60 seconds injection of 10 mM Glycine pH 1.7 at the flow rate of 50 μL/min. […] For this setup, 1 μg/mL of purified antibody was injected over a Protein A chip at 10 μL/min for 25 seconds. […] The sensor chip was regenerated by a 60 seconds injection of 10 mM Glycine pH 1.7 at flow rate of 50 μL/min. Data analysis for supernatant and purified samples were performed using BIAevaluation software (GE). All sensorgrams were double reference subtracted and fit using a 1:1 Langmuir binding model.

Sequence of human IL-6 (P05231 30-212 limits assumed): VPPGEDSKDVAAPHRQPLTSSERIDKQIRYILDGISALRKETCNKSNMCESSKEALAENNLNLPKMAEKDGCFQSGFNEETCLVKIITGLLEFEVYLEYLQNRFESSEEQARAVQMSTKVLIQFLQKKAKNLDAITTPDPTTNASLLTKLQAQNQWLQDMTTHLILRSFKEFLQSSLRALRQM

Row | Binder | Kd [nM] | koff [s⁻¹] | kon [M⁻¹ s⁻¹]
1 | anti-IL-6 antibody, heavy chain T63D, G66D / light chain M32L, M50D, N52S, M88Q (antibody, human IgG1, V domains shown, Human IgG1) VH: EVQLVESGGGLVQPGGSLRLSCAASGFTFSPFAMSWVRQAPGKGLEWVAKISPGGSWTYYSDDVTDRFTFSLDTSKSTAYLQMNSLRAEDTAVYYCARQLWGYYALDIWGQGTLVTVSS VL: DIQLTQSPSSLSASVGDRVTITCSASISVSYLYWYQQKPGKAPKLLIYDDSSLASGVPSRFSGSGSGTDFTLTISSLQPEDFATYYCQQWSGYPYTFGQGTKVEIK | 0.249 | 0.000413 | 1.66e+06
2 | anti-IL-6 antibody, heavy chain T63F, G66D / light chain M32L, M50D, N52S, M88Q (antibody, human IgG1, V domains shown, Human IgG1) VH: EVQLVESGGGLVQPGGSLRLSCAASGFTFSPFAMSWVRQAPGKGLEWVAKISPGGSWTYYSDFVTDRFTFSLDTSKSTAYLQMNSLRAEDTAVYYCARQLWGYYALDIWGQGTLVTVSS VL: DIQLTQSPSSLSASVGDRVTITCSASISVSYLYWYQQKPGKAPKLLIYDDSSLASGVPSRFSGSGSGTDFTLTISSLQPEDFATYYCQQWSGYPYTFGQGTKVEIK | 0.274 | 0.000459 | 1.67e+06
3 | anti-IL-6 antibody, heavy chain T63G, G66D / light chain M32L, M50D, N52S, M88Q (antibody, human IgG1, V domains shown, Human IgG1) VH: EVQLVESGGGLVQPGGSLRLSCAASGFTFSPFAMSWVRQAPGKGLEWVAKISPGGSWTYYSDGVTDRFTFSLDTSKSTAYLQMNSLRAEDTAVYYCARQLWGYYALDIWGQGTLVTVSS VL: DIQLTQSPSSLSASVGDRVTITCSASISVSYLYWYQQKPGKAPKLLIYDDSSLASGVPSRFSGSGSGTDFTLTISSLQPEDFATYYCQQWSGYPYTFGQGTKVEIK | 0.261 | 0.00045 | 1.73e+06
4 | anti-IL-6 antibody, heavy chain T63H, G66D / light chain M32L, M50D, N52S, M88Q (antibody, human IgG1, V domains shown, Human IgG1) VH: EVQLVESGGGLVQPGGSLRLSCAASGFTFSPFAMSWVRQAPGKGLEWVAKISPGGSWTYYSDHVTDRFTFSLDTSKSTAYLQMNSLRAEDTAVYYCARQLWGYYALDIWGQGTLVTVSS VL: DIQLTQSPSSLSASVGDRVTITCSASISVSYLYWYQQKPGKAPKLLIYDDSSLASGVPSRFSGSGSGTDFTLTISSLQPEDFATYYCQQWSGYPYTFGQGTKVEIK | 0.28 | 0.000481 | 1.72e+06
5 | anti-IL-6 antibody, heavy chain T63I, G66D / light chain M32L, M50D, N52S, M88Q (antibody, human IgG1, V domains shown, Human IgG1) VH: EVQLVESGGGLVQPGGSLRLSCAASGFTFSPFAMSWVRQAPGKGLEWVAKISPGGSWTYYSDIVTDRFTFSLDTSKSTAYLQMNSLRAEDTAVYYCARQLWGYYALDIWGQGTLVTVSS VL: DIQLTQSPSSLSASVGDRVTITCSASISVSYLYWYQQKPGKAPKLLIYDDSSLASGVPSRFSGSGSGTDFTLTISSLQPEDFATYYCQQWSGYPYTFGQGTKVEIK | 0.288 | 0.000446 | 1.55e+06
6 | anti-IL-6 antibody, heavy chain T63L, G66D / light chain M32L, M50D, N52S, M88Q (antibody, human IgG1, V domains shown, Human IgG1) VH: EVQLVESGGGLVQPGGSLRLSCAASGFTFSPFAMSWVRQAPGKGLEWVAKISPGGSWTYYSDLVTDRFTFSLDTSKSTAYLQMNSLRAEDTAVYYCARQLWGYYALDIWGQGTLVTVSS VL: DIQLTQSPSSLSASVGDRVTITCSASISVSYLYWYQQKPGKAPKLLIYDDSSLASGVPSRFSGSGSGTDFTLTISSLQPEDFATYYCQQWSGYPYTFGQGTKVEIK | 0.283 | 0.000454 | 1.6e+06
7 | anti-IL-6 antibody, heavy chain T63P, G66D / light chain M32L, M50D, N52S, M88Q (antibody, human IgG1, V domains shown, Human IgG1) VH: EVQLVESGGGLVQPGGSLRLSCAASGFTFSPFAMSWVRQAPGKGLEWVAKISPGGSWTYYSDPVTDRFTFSLDTSKSTAYLQMNSLRAEDTAVYYCARQLWGYYALDIWGQGTLVTVSS VL: DIQLTQSPSSLSASVGDRVTITCSASISVSYLYWYQQKPGKAPKLLIYDDSSLASGVPSRFSGSGSGTDFTLTISSLQPEDFATYYCQQWSGYPYTFGQGTKVEIK | 0.246 | 0.000419 | 1.7e+06
8 | anti-IL-6 antibody, heavy chain T63R, G66D / light chain M32L, M50D, N52S, M88Q (antibody, human IgG1, V domains shown, Human IgG1) VH: EVQLVESGGGLVQPGGSLRLSCAASGFTFSPFAMSWVRQAPGKGLEWVAKISPGGSWTYYSDRVTDRFTFSLDTSKSTAYLQMNSLRAEDTAVYYCARQLWGYYALDIWGQGTLVTVSS VL: DIQLTQSPSSLSASVGDRVTITCSASISVSYLYWYQQKPGKAPKLLIYDDSSLASGVPSRFSGSGSGTDFTLTISSLQPEDFATYYCQQWSGYPYTFGQGTKVEIK | 0.273 | 0.000526 | 1.92e+06
9 | anti-IL-6 antibody, heavy chain T63S, G66D / light chain M32L, M50D, N52S, M88Q (antibody, human IgG1, V domains shown, Human IgG1) VH: EVQLVESGGGLVQPGGSLRLSCAASGFTFSPFAMSWVRQAPGKGLEWVAKISPGGSWTYYSDSVTDRFTFSLDTSKSTAYLQMNSLRAEDTAVYYCARQLWGYYALDIWGQGTLVTVSS VL: DIQLTQSPSSLSASVGDRVTITCSASISVSYLYWYQQKPGKAPKLLIYDDSSLASGVPSRFSGSGSGTDFTLTISSLQPEDFATYYCQQWSGYPYTFGQGTKVEIK | 0.278 | 0.000499 | 1.8e+06
10 | anti-IL-6 antibody, heavy chain T63V, G66D / light chain M32L, M50D, N52S, M88Q (antibody, human IgG1, V domains shown, Human IgG1) VH: EVQLVESGGGLVQPGGSLRLSCAASGFTFSPFAMSWVRQAPGKGLEWVAKISPGGSWTYYSDVVTDRFTFSLDTSKSTAYLQMNSLRAEDTAVYYCARQLWGYYALDIWGQGTLVTVSS VL: DIQLTQSPSSLSASVGDRVTITCSASISVSYLYWYQQKPGKAPKLLIYDDSSLASGVPSRFSGSGSGTDFTLTISSLQPEDFATYYCQQWSGYPYTFGQGTKVEIK | 0.274 | 0.00043 | 1.57e+06
11 | anti-IL-6 antibody, heavy chain T63W, G66D / light chain M32L, M50D, N52S, M88Q (antibody, human IgG1, V domains shown, Human IgG1) VH: EVQLVESGGGLVQPGGSLRLSCAASGFTFSPFAMSWVRQAPGKGLEWVAKISPGGSWTYYSDWVTDRFTFSLDTSKSTAYLQMNSLRAEDTAVYYCARQLWGYYALDIWGQGTLVTVSS VL: DIQLTQSPSSLSASVGDRVTITCSASISVSYLYWYQQKPGKAPKLLIYDDSSLASGVPSRFSGSGSGTDFTLTISSLQPEDFATYYCQQWSGYPYTFGQGTKVEIK | 0.286 | 0.000449 | 1.57e+06
12 | anti-IL-6 antibody, heavy chain T63Y, G66D / light chain M32L, M50D, N52S, M88Q (antibody, human IgG1, V domains shown, Human IgG1) VH: EVQLVESGGGLVQPGGSLRLSCAASGFTFSPFAMSWVRQAPGKGLEWVAKISPGGSWTYYSDYVTDRFTFSLDTSKSTAYLQMNSLRAEDTAVYYCARQLWGYYALDIWGQGTLVTVSS VL: DIQLTQSPSSLSASVGDRVTITCSASISVSYLYWYQQKPGKAPKLLIYDDSSLASGVPSRFSGSGSGTDFTLTISSLQPEDFATYYCQQWSGYPYTFGQGTKVEIK | 0.241 | 0.000459 | 1.91e+06
13 | anti-IL-6 antibody, heavy chain T65A, G66D / light chain M32L, M50D, N52S, M88Q (antibody, human IgG1, V domains shown, Human IgG1) VH: EVQLVESGGGLVQPGGSLRLSCAASGFTFSPFAMSWVRQAPGKGLEWVAKISPGGSWTYYSDTVADRFTFSLDTSKSTAYLQMNSLRAEDTAVYYCARQLWGYYALDIWGQGTLVTVSS VL: DIQLTQSPSSLSASVGDRVTITCSASISVSYLYWYQQKPGKAPKLLIYDDSSLASGVPSRFSGSGSGTDFTLTISSLQPEDFATYYCQQWSGYPYTFGQGTKVEIK | 0.239 | 0.000542 | 2.27e+06
14 | anti-IL-6 antibody, heavy chain T65D, G66D / light chain M32L, M50D, N52S, M88Q (antibody, human IgG1, V domains shown, Human IgG1) VH: EVQLVESGGGLVQPGGSLRLSCAASGFTFSPFAMSWVRQAPGKGLEWVAKISPGGSWTYYSDTVDDRFTFSLDTSKSTAYLQMNSLRAEDTAVYYCARQLWGYYALDIWGQGTLVTVSS VL: DIQLTQSPSSLSASVGDRVTITCSASISVSYLYWYQQKPGKAPKLLIYDDSSLASGVPSRFSGSGSGTDFTLTISSLQPEDFATYYCQQWSGYPYTFGQGTKVEIK | 0.465 | 0.00048 | 1.03e+06
15 | anti-IL-6 antibody, heavy chain T65E, G66D / light chain M32L, M50D, N52S, M88Q (antibody, human IgG1, V domains shown, Human IgG1) VH: EVQLVESGGGLVQPGGSLRLSCAASGFTFSPFAMSWVRQAPGKGLEWVAKISPGGSWTYYSDTVEDRFTFSLDTSKSTAYLQMNSLRAEDTAVYYCARQLWGYYALDIWGQGTLVTVSS VL: DIQLTQSPSSLSASVGDRVTITCSASISVSYLYWYQQKPGKAPKLLIYDDSSLASGVPSRFSGSGSGTDFTLTISSLQPEDFATYYCQQWSGYPYTFGQGTKVEIK | 0.279 | 0.000474 | 1.7e+06
16 | anti-IL-6 antibody, heavy chain T65F, G66D / light chain M32L, M50D, N52S, M88Q (antibody, human IgG1, V domains shown, Human IgG1) VH: EVQLVESGGGLVQPGGSLRLSCAASGFTFSPFAMSWVRQAPGKGLEWVAKISPGGSWTYYSDTVFDRFTFSLDTSKSTAYLQMNSLRAEDTAVYYCARQLWGYYALDIWGQGTLVTVSS VL: DIQLTQSPSSLSASVGDRVTITCSASISVSYLYWYQQKPGKAPKLLIYDDSSLASGVPSRFSGSGSGTDFTLTISSLQPEDFATYYCQQWSGYPYTFGQGTKVEIK | 0.291 | 0.000391 | 1.34e+06
17 | anti-IL-6 antibody, heavy chain T65G, G66D / light chain M32L, M50D, N52S, M88Q (antibody, human IgG1, V domains shown, Human IgG1) VH: EVQLVESGGGLVQPGGSLRLSCAASGFTFSPFAMSWVRQAPGKGLEWVAKISPGGSWTYYSDTVGDRFTFSLDTSKSTAYLQMNSLRAEDTAVYYCARQLWGYYALDIWGQGTLVTVSS VL: DIQLTQSPSSLSASVGDRVTITCSASISVSYLYWYQQKPGKAPKLLIYDDSSLASGVPSRFSGSGSGTDFTLTISSLQPEDFATYYCQQWSGYPYTFGQGTKVEIK | 0.311 | 0.000477 | 1.53e+06
18 | anti-IL-6 antibody, heavy chain T65H, G66D / light chain M32L, M50D, N52S, M88Q (antibody, human IgG1, V domains shown, Human IgG1) VH: EVQLVESGGGLVQPGGSLRLSCAASGFTFSPFAMSWVRQAPGKGLEWVAKISPGGSWTYYSDTVHDRFTFSLDTSKSTAYLQMNSLRAEDTAVYYCARQLWGYYALDIWGQGTLVTVSS VL: DIQLTQSPSSLSASVGDRVTITCSASISVSYLYWYQQKPGKAPKLLIYDDSSLASGVPSRFSGSGSGTDFTLTISSLQPEDFATYYCQQWSGYPYTFGQGTKVEIK | 0.297 | 0.000423 | 1.43e+06
19 | anti-IL-6 antibody, heavy chain T65K, G66D / light chain M32L, M50D, N52S, M88Q (antibody, human IgG1, V domains shown, Human IgG1) VH: EVQLVESGGGLVQPGGSLRLSCAASGFTFSPFAMSWVRQAPGKGLEWVAKISPGGSWTYYSDTVKDRFTFSLDTSKSTAYLQMNSLRAEDTAVYYCARQLWGYYALDIWGQGTLVTVSS VL: DIQLTQSPSSLSASVGDRVTITCSASISVSYLYWYQQKPGKAPKLLIYDDSSLASGVPSRFSGSGSGTDFTLTISSLQPEDFATYYCQQWSGYPYTFGQGTKVEIK | 0.356 | 0.000579 | 1.63e+06

Source: patent US20240209076A1 (KODIAK SCIENCES, published 2024)
